From the nanobody polyreactivity screen of Harvey et al. (2022)

Test: yeast display, Sf9 membrane polyspecificity reagent, FACS + sequencing; frameworks hold sequencing errors
Outline: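 Sorting gates, low and high (top ~1%), were placed on anti-HA fluorescence to track expression and on streptavidin fluorescence to track reagent binding. A clone's polyreactivity label is taken from the gate it came out of. The reagent was 10% biotinylated, detergent-solubilized Sf9 membrane, applied for 1 hour at 4 °C to galactose-induced yeast display cells.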

Sequence	polyreactivity (PSR sort gate)
QVQLVESGGGLVQAGGSLRLSCAASGSIFSYYAMGWDRQAPGKERELVASISWNGTSTYYADSVKGRFTISRDNAKNTVYLQMNSLKPEDTAVYYCNGRFIYRGTYDYWGQGTQVTVSS	low polyreactivity
QVQLVESGGGLVQAGGSLRLSCAASGFIFRRYAMGWYRQAPGKDRALVAAITIGGSTSYADSVKGRFTISRDNAKKTVYVQMNSLKPEDTAVYYCNAGSFSRKARRYDYWGQGTQVTVSS	high polyreactivity
QVQLVESGGGLVQAGGSLRLSCAASGFTLAYYAMGWYRQAPGKERELVAAITADTGTTYYADSVKGRFTISRDNAKNTVYLQMNSLKPEDTAVYYCATRDVFYEDDYWGQGTQVTVSS	high polyreactivity
QVQLVESGGGLVQAGGSLRLSCAASGSTFEQYAMGWYRQAPGKERELVAAISGSGTRTYYADSVKGRFTISRDNAKNTVYLQMNSLKPEDTAVYYCAARFSYPAIHQAYYHWGQGTQVTVSS	high polyreactivity
QVQLVESGGRLVQAGGILRLSCAASGRIFAYYAMGWYRHSPGKERELVAAINWSGDGTNYADSVKGRFTISRDNEKNSVYLQMNSLKPEDTAVYYWNADWTSYGFGTRLDYWGQGTQVTVSS	low polyreactivity
QVQLVESGGGLVQAGGSLRLSCAASGRTFRSNAMGWYRQAPGKEREFVAAISSGGSTKYADSVKGRFTISRDNAKNTVYLQMNSLKPEDTAVYYCAAVSHSRYWGEGTQVTVSS	high polyreactivity
QVQLVESGGGLVQAGGSLRLSCAASGSTFSRYAMGWYRQAPGKERELVAAISGSGGSTSYADSVKGRFTISRDNAKNTVYLQMNSLKPEDTAVYYCAAYYLWYSRAFDYWGQGTQVTVSS	high polyreactivity
QVQLVESGGGLVQAGGSLRLSCADSGRIIQYNAMGWYRQAPGKERDLDAAISYRGGSTYYADSVKGRYTISRDNAKNTVYLQMNSLKPEDTAVYYCAVEYPVYYYVEYDYWGQGTQVTVSS	high polyreactivity
QFQLVESGGGLVQAGGSLRLSCAPSGSTFVSYSMAWYRQEPGKERQFVAAITWSGGSTYYADSVKGRFTISRDNANNTVYLQMNSLKPEDTAVYYCARPYRGSPRYYYWGQGTQVTLSS	high polyreactivity
QVQLVESGGGLVQAGGSLRLSCASSGGTFSPYAMVWYIQAPGKEREMVAVIRSDVTTNYADSVKGRFTISRDNAKNTLYLQMNRLKPEDTAVYYCAVQYLGYGGLFPLDYWGQGTQVTVSS	low polyreactivity
QVQLVESGGGLVQAGGSLRLSCAASGGIFGSYAMGWYRQAPGKERELVADITQSGGRTRYADSVKGRFTISRDNAKNTVYLQMNSLKPEDSAVYYCNAQDVDSGDDYDYWGQGTQVTVSS	low polyreactivity
QVQLVESGGGLVQAGGSLRLSCAASGSTFIGYTMGWYRQAPGKERELVAAISTSGARTYYADSVKGRFTISRDNAKNTVYLQMNSLKPEDTAVYYCAARAIYKSKYDYWGQGTQVTVSS	high polyreactivity
QVQLVESGGGLVQAGGSLRLSCAASGLTFRRYTMGWYRQAPGKERECVAAIRTSGGSTSYADSVKGRFTISRDNAKNTVYLQMNSLKPEDTAVYYCAADYGGTSYVRGTVGRKYDYWGQGTQVTVSS	high polyreactivity
QVQLVESGGGLVQAGGSLRLSCAASGSIFQSNAMGWSRQAPGKERELVAAISSRGGRTYYADSVKGRFTISRDNAKYTVYLQLNSLKPEDTAVYYCAVVPFTEHDYWGQGTQVTVSS	high polyreactivity
QVQLVESGGGLDQAGGSLRLSFAASGFTFGYYAMGWYRQEPGKARELVAAITYDGDTTYYADSVKGRITISRDNAKNTVYLQMNSLKPEDTAVYYCNRDVLTFNYDYWGQGTQVTVSS	low polyreactivity
QVQLVESGGGLVQAGGSLRLSCAASGLIFRYYAMGWYRQAPGKERELVAAISWSGASTYYADSVKGRFTISRDNAKNTVYLQMNSLKPEDTAVYYCGRVSYYYPSEYNYWGQGTQVTVSS	high polyreactivity
